Here are results for two molecules from paper PMC8405949 (2021).

Assay in all cases: SPR
(SPR reads the build-up and loss of mass on a sensor chip optically.)

The target in experiment [1] is XRCC1 cancer-associated variant Y576S (human, UniProt P18887 1-633, Y576S).
Experiment [2] deals with XRCC1 cancer-associated variant R280H (human, UniProt P18887 1-633, R280H).
Experiment [3] deals with XRCC1 cancer-associated variant R194W (human, UniProt P18887 1-633, R194W).
Experiment [4] concerns the target XRCC1 cancer-associated variant P161L (human, UniProt P18887 1-633, P161L).
The target in experiment [5] is XRCC1 cerebellar ataxia-related K431N mutant (human, UniProt P18887 1-633, K431N).

B1: DNA ligase IIIα, human wild-type full-length (1–922 aa) (enzyme)
chain: MAEQRFCVDYAKRGTAGCKKCKEKIVKGVCRIGKVVPNPFSESGGDMKEWYHIKCMFEKLERARATTKKIEDLTELEGWEELEDNEKEQITQHIADLSSKAAGTPKKKAVVQAKLTTTGQVTSPVKGASFVTSTNPRKFSGFSAKPNNSGEAPSSPTPKRSLSSSKCDPRHKDCLLREFRKLCAMVADNPSYNTKTQIIQDFLRKGSAGDGFHGDVYLTVKLLLPGVIKTVYNLNDKQIVKLFSRIFNCNPDDMARDLEQGDVSETIRVFFEQSKSFPPAAKSLLTIQEVDEFLLRLSKLTKEDEQQQALQDIASRCTANDLKCIIRLIKHDLKMNSGAKHVLDALDPNAYEAFKASRNLQDVVERVLHNAQEVEKEPGQRRALSVQASLMTPVQPMLAEACKSVEYAMKKCPNGMFSEIKYDGERVQVHKNGDHFSYFSRSLKPVLPHKVAHFKDYIPQAFPGGHSMILDSEVLLIDNKTGKPLPFGTLGVHKKAAFQDANVCLFVFDCIYFNDVSLMDRPLCERRKFLHDNMVEIPNRIMFSEMKRVTKALDLADMITRVIQEGLEGLVLKDVKGTYEPGKRHWLKVKKDYLNEGAMADTADLVVLGAFYGQGSKGGMMSIFLMGCYDPGSQKWCTVTKCAGGHDDATLARLQNELDMVKISKDPSKIPSWLKVNKIYYPDFIVPDPKKAAVWEITGAEFSKSEAHTADGISIRFPRCTRIRDDKDWKSATNLPQLKELYQLSKEKADFTVVAGDEGSSTTGGSSEENKGPSGSAVSRKAPSKPSASTKKAEGKLSNSNSKDGNMQTAKPSAMKVGEKLATKSSPVKVGEKRKAADETLCQTKVLLDIFTGVRLYLPPSTPDFSRLRRYFVAFDGDLVQEFDMTSATHVLGSRDKNPAAQQVSPEWIWACIRKRRLVAPC
Take B1: the Kd in experiment [1] was 50.4 nM; in experiment [2] it was 43.6 nM; in experiment [3], 44.9 nM; in experiment [4], 37.3 nM.

B2: Aprataxin (APTX), human wild-type full-length (enzyme)
chain: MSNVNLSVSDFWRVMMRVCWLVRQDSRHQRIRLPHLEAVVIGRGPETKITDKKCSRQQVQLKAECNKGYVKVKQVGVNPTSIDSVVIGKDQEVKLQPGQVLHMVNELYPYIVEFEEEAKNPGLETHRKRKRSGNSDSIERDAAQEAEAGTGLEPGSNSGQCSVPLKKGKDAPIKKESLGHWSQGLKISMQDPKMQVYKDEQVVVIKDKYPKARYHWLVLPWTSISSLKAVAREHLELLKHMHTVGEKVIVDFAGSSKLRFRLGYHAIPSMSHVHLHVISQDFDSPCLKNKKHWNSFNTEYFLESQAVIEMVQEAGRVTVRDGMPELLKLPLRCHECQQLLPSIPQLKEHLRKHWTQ
In the case of B2, the Kd is 422 nM in experiment [1]; 569 nM in experiment [2]; 686 nM in experiment [3]; 320 nM in experiment [4]; 301 nM in experiment [5].

As usually defined, the Kd is the free concentration of one partner at which half of the binding sites on the other are occupied at equilibrium, for simple one-to-one binding. Higher therefore signals lower affinity.
